Data reported in patent publication US20120316071A1 (published 2012).
Numbering of substitutions follows the chain as printed. Names and notes keep the numbering of the source.

Columns and labels:
[1] = biological target: T1, Recombinant Human DLL4 (R&D Systems Cat#1506-D4/CF) (human, UniProt Q9NR61 27-524); assay: MSD multispot ECL, antigen spotted on plate, Fab 705 nM; blank spot 483
T1 construct: Bought from R&D Systems; also called rHuman DLL4; delta-like protein 4

[2] = biological target: T2, rHuman CD44/Fc Chimera, CF (R&D Systems Cat#3660-CD) (human, UniProt P16070 21-220); assay: as above
T2 construct: Bought from R&D Systems; not shown: Fc of the bought chimera

[3] = biological target: T3, rHuman P-Cadherin/Fc Chimera, CF (R&D Systems Cat#861-PC) (human, UniProt P22223 108-654); assay: as above
T3 construct: Bought from R&D Systems; not shown: Fc of the bought chimera

[4] = biological target: T4, rHuman Erythropoietin R/Fc Chimera, CF (R&D Systems Cat#963-ER) (human, UniProt P19235 25-250); assay: as above
T4 construct: Bought from R&D Systems; also called EPO R/Fc; Epo R/Fc chimera; not shown: Fc of the bought chimera
T4 sequence (looked up): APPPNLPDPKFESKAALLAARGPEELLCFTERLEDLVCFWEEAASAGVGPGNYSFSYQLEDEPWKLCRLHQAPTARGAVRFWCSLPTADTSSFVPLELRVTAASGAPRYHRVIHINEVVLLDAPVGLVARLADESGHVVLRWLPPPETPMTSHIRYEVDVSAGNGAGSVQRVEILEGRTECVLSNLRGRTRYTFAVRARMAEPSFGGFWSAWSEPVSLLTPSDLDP

[5] = biological target: T5, rHuman IGF-1 sR, CF (R&D Systems Cat#391-GR) (human, UniProt P08069 31-932); assay: ECL Multispot (MSD) assay, antigen spotted on plate, 10 nM Fab; blank spot of this row 487
T5 construct: Bought soluble receptor; The column head prints only 'IGF-1'; also called insulin-like growth factor-1 soluble receptor

[6] = biological target: T6, rHuman P-Cadherin/Fc Chimera, CF (R&D Systems Cat#861-PC) (human, UniProt P22223 108-654); assay: as above
T6 construct: Bought reagent; Fc part of the bought chimera not given

[7] = biological target: T7, rHuman Erythropoietin R/Fc Chimera, CF (R&D Systems Cat#963-ER) (human, UniProt P19235 25-250); assay: as above
T7 construct: Bought reagent; also called EPO R; EPO R/Fc; Fc part of the bought chimera not given
T7 sequence (looked up): T4 sequence (looked up)

[8] = biological target: T8, rHuman ErbB2/Fc Chimera, CF (R&D Systems Cat#1129-ER) (human, UniProt P04626 23-652); assay: as above
T8 construct: Bought reagent; also called human epidermal growth factor 2 receptor; Fc part of the bought chimera not given

[9] = biological target: T9, rHuman EGF R/Fc Chimera, CF (R&D Systems Cat#344-ER) (human, UniProt P00533 25-645); assay: as above
T9 construct: Bought reagent; also called epidermal growth factor receptor; Fc part of the bought chimera not given

[10] = biological target: T10, rHuman HGF R/c-MET/Fc Chimera, CF (R&D Systems Cat#358-MT/CF) (human, UniProt P08581 25-932); assay: as above
T10 construct: Bought reagent; also called HGF R/Fc; hepatocyte growth factor receptor; Fc part of the bought chimera not given

[11] = biological target: T11, rHuman Notch-1/Fc Chimera, CF (R&D Systems Cat#3647-TK) (human, UniProt P46531 19-526); assay: as above
T11 construct: Bought reagent; Fc part of the bought chimera not given

[12] = biological target: T12, rHuman CD44/Fc Chimera, CF (R&D Systems Cat#3660-CD) (human, UniProt P16070 21-220); assay: as above
T12 construct: Bought reagent; Fc part of the bought chimera not given

[13] = biological target: T13, rHuman ErbB2/Fc Chimera, CF (R&D Systems Cat#1129-ER) (human, UniProt P04626 23-652); assay: MSD multispot ECL, antigen spotted, Fab 148.9 nM; blank spot 218
T13 construct: Bought reagent; also called human epidermal growth factor 2 receptor

[14] = biological target: T14, rHuman EGF R/Fc Chimera, CF (R&D Systems Cat#344-ER) (human, UniProt P00533 25-645); assay: as above
T14 construct: Bought reagent; also called epidermal growth factor receptor

[15] = biological target: T15, rHuman HGF R/c-MET/Fc Chimera, CF (R&D Systems Cat#358-MT/CF) (human, UniProt P08581 25-932); assay: as above
T15 construct: Bought reagent; also called HGF R/Fc; hepatocyte growth factor receptor

[16] = biological target: T16, rHuman CD44/Fc Chimera, CF (R&D Systems Cat#3660-CD) (human, UniProt P16070 21-220); assay: as above
T16 construct: Bought reagent

[17] = biological target: T17, rHuman IGF-1 sR, (IGF-1 sR), CF (R&D Systems Cat#391-GR) (human, UniProt P08069 31-932); assay: as above
T17 construct: Bought soluble receptor; also called insulin-like growth factor-1 soluble receptor

[18] = biological target: T18, rHuman Erythropoietin R/Fc Chimera, CF (R&D Systems Cat#963-ER) (human, UniProt P19235 25-250); assay: as above
T18 construct: Bought reagent; also called EPO R/Fc; Epo R
T18 sequence (looked up): T4 sequence (looked up)

B1: Fab VH1-46_IGHD3-10*01_IGHJ4*01 & B3_IGKJ1*01 (Fab, V domains shown)
VH: QVQLVQSGAEVKKPGASVKVSCKASGYTFTSYYMHWVRQAPGQGLEWMGIINPSGGSTSYAQKFQGRVTMTRDTSTSTVYMELSSLRSEDTAVYYCAREYYYGSGSYYNDYFDYWGQGTLVTVSS
VL: not shown
notes: Tested as a Fab made in E. coli; VH was cloned into Plasmid A (CH1 constant region, His6 and Flag tags); The kappa VL was cloned into Plasmid C (kappa CL)
B1 gave an ECL signal [1] of 981, an ECL signal [2] of 693 and an ECL signal [3] of 827. The ECL signal [4] was 4890.

B2: Fab VH1-46_IGHD6-6*01_IGHJ1*01 S102A/S103P/S104F (APF) & L6_IGKJ1*01 (Fab, V domains shown)
VH: QVQLVQSGAEVKKPGASVKVSCKASGYTFTSYYMHWVRQAPGQGLEWMGIINPSGGSTSYAQKFQGRVTMTRDTSTSTVYMELSSLRSEDTAVYYCAREEYAPFSAEYFQHWGQGTLVTVSS
VL: not shown
notes: Tested as a Fab made in E. coli; also called H:APF & L:wt; APF triple mutant
Binder B2 has an ECL signal [5] of 453, an ECL signal [6] of 384 and an ECL signal [7] of 326. For the same binder, the ECL signal [8] was 381, the ECL signal [9] was 206 and the ECL signal [10] was 379. It also gave an ECL signal [11] of 450 and an ECL signal [12] of 363.

B3: Fab VH1-46_IGHD6-6*01_IGHJ1*01 & L6_IGKJ1*01 (Fab, V domains shown)
VH: B2 VH with A102S, P103S, F104S
VL: not shown
notes: Only variable domains are tied to the molecule; Tested as a Fab made in E. coli: heavy chain from Plasmid A (CH1 constant region, His6 and Flag tags), kappa light chain from Plasmid C (kappa CL); also called parent Hit Fab against DLL4; VH1-46_IGHD6-6*01_IGHJ1*01 & L6_IGKJ1*01 (parental)
Binder B3 has an ECL signal [13] of 247 ECL signal, an ECL signal [14] of 290 ECL signal and an ECL signal [15] of 205 ECL signal. The ECL signal [16] was 348 ECL signal, the ECL signal [17] was 322 ECL signal and the ECL signal [18] was 373 ECL signal.
